Experimental data as given in US20080207488A1, “Method for Detecting Peptides Comprising a Cross-B Structure” (priority 2005, published 2008).
Blank lines part the entries; values can stand above or below the substance they belong to.

Experiments:
U937 monocytes = assay: TNFα RNA upregulation in U937 monocytes (RT-PCR); type: cell-based, human; conditions: 1 h stimulation; 100 μg ml^−1 amyloid endostatin, 260 μg ml^−1 Hb-AGE; LPS 1 μg ml^−1; normalized to 18S
Procedure: U937 monocytes were cultured in six-wells plates. Cells were stimulated with buffer (negative control), 1 μg ml^−1 LPS (positive control), 100 μg ml^−1 amyloid endostatin^1,7, 260 μg ml^−1 Hb-AGE and 260 μg ml^−1 control Hb. After 1 h of stimulation, cells were put on ice. After washing RNA was isolated and quantified spectrophotometrically. Normalized amounts of RNA were used for 26 cycli of RT-PCR with human TNFα primer and 18 cycli of RT-PCR with ribosomal 18S primer for normalization purposes. DNA was analyzed on a 2% agarose gel.

factor XII = target: T1, factor XII (Homo sapiens, UniProt P00748); assay: Factor XII auto-activation assay with substrate S-2222; type: biochemical; conditions: purified factor XII, 100 μg ml^−1 FP13 K157G, 10 μg ml^−1 Aβ(1-40) E22Q, 10 μg ml^−1 Hb-AGE, DXS500k 1 μg ml^−1 as comparator
T1 construct: purchased Calbiochem, EMD Biosciences #233490
T1 sequence (P00748 20-615): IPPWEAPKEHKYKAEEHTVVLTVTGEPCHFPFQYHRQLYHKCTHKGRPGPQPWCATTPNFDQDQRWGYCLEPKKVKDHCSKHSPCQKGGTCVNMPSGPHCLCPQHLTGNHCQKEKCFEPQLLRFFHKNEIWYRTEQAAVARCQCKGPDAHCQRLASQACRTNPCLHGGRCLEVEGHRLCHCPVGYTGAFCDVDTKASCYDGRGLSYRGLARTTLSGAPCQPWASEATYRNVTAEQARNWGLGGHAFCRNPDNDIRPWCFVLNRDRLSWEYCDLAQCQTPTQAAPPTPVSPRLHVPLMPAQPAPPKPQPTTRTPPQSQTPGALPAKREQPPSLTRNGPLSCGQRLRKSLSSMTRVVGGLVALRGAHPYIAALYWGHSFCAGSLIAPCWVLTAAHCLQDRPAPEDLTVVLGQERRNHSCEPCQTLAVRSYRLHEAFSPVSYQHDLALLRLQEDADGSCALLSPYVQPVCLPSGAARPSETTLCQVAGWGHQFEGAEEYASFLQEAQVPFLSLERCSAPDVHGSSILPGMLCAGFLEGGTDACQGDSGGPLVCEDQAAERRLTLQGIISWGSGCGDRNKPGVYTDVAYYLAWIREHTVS
Procedure: Plasmin (Pls) activity was assayed as described^7. Peptides and proteins that were tested for their stimulatory ability were regularly used at 100 μg ml^−1. […] Chromogenic substrate S-2251 (Chromogenix, Instrumentation Laboratory SpA, Milano, Italy) was used to measure Pls activity. Conversion of zymogen factor XII (#233490, Calbiochem, EMD Biosciences, Inc., San Diego, Calif.) to proteolytically active factor XII (factor XIIa) was assayed by measurement of the conversion of chromogenic substrate Chromozym-PK (Roche Diagnostics, Almere, The Netherlands) by kallikrein. Chromozym-PK was used at a concentration of 0.3 mM. Factor XII, human plasma prekallikrein (#529583, Calbiochem) and human plasma cofactor high-molecular weight kininogen (#422686, Calbiochem) were used at concentrations of 1 μg ml^−1. […] Assays were performed using microtiter plates (Costar, Cambridge, Mass., USA). […] The conversion of Chromozym-PK was recorded kinetically at 37° C. for at least 60 minutes. […] With S-2222, activation of factor XII in plasma was measured, using 60% v/v plasma, diluted with substrate and H2O with or without potential cofactor. Furthermore, auto-activation of factor XII was measured by incubating 53 μg ml^−1 purified factor XII in 50 mM Tris-HCl buffer pH 7.5 with 1 mM EDTA and 0.001% v/v Triton-X100, with S-2222 and H2O with or without potential cofactor.

tPA = target: T2, tPA (Homo sapiens, UniProt P00750); assay: tPA ELISA with proteins pre-incubated with DXS500k; type: binding
T2 construct: purchased Boehringer-Ingelheim (Actilyse, Alteplase)
T2 sequence (P00750 36-562): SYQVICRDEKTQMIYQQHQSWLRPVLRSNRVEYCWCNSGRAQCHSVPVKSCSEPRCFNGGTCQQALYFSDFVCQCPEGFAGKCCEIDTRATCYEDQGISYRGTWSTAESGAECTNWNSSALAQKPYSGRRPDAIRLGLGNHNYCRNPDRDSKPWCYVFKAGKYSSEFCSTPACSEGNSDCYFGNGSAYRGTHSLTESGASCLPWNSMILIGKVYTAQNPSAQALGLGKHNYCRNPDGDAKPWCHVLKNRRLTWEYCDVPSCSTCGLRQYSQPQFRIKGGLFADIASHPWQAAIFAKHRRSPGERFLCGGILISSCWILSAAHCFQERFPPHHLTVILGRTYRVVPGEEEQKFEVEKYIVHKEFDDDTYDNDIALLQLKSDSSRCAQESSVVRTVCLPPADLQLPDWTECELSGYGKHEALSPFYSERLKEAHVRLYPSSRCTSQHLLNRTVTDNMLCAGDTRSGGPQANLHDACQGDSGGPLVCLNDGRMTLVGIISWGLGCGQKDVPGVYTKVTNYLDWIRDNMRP

Substance: Hb-AGE: human haemoglobin incubated 32 weeks at 37° C. with glucose-6-phosphate
TNFα RNA expression when compared to LPS (U937 monocytes): approximately 30%

Substance: freshly dissolved FP13 K157G: FP13 K157G peptide freshly dissolved, not aggregated (KRLEVDIDIGIRS)
potency to induce factor XII auto-activation (factor XII): did not or hardly auto-activate factor XII

tPA binding to protein pre-incubated overnight with DXS500k (tPA): binds specifically
Substance: factor XII: zymogen factor XII (Calbiochem), here pre-incubated with DXS500k
